The source of these data is article PMC3109872.

The data set deals with ETV5 DNA-binding domain (pET-41a) (UniProt Q9CXC9 368-448). The experiment in a line: EMSA.
ETV5 DNA-binding domain (pET-41a), sequence (Q9CXC9 368-448): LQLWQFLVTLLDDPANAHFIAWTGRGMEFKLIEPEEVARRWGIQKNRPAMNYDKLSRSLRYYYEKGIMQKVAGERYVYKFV

B1: EBS3 probe (Ccl9) (dsDNA)
DNA 1: CTCTAGTACCAGGGAATTTAACACCCTCTTC
DNA 2: GAAGAGGGTGTTAAATTCCCTGGTACTAGAG
B1: the binding result is on record as “binds”.
